Source: publication PMC10524804

System: CpxR-R195H (Klebsiella pneumoniae HS11286 (ST11)?)
Test: ITC
Conditions: EMSA: Beyotime binding buffer (poly(dI-dC), DTT, glycerol, EDTA, NaCl, MgCl2, Tris), room temp, 2 pmol probe; footprinting: 50 mM Tris-HCl pH 8.0, 100 mM KCl …

Substance: PblaKPC (Tn1721, ST11), unlabeled
- binding signal (fold lower affinity than wild type): 100
